Literature values, collected in publication PMC11528372.

How the values were obtained:
Details in all cases: cited from earlier work
Asp85 = Asp85 (UniProt position 98, WARYADWLFTT)
Asp74 = Asp74 (UniProt position 74, WGRYIDWVVTT)
Asp121 = Asp121 (UniProt position 121, AYRYVDWLLTV)
Asp97 = Asp97 (UniProt position 97, VFRYIDWLLTV)

In the case of “Bacteriorhodopsin (BR) (Halobacterium salinarum)”, the pKa (Asp85) is listed as ~2.6.

For “Cyanorhodopsin N2098R (Calothrix sp. NIES-2098 rhodopsin) (Calothrix sp. NIES-2098)”, the pKa (Asp74) is given as <2.0.

In the case of “Gloeobacter rhodopsin (GR) (Gloeobacter violaceus PCC 7421)”, the pKa (Asp121) is listed as ~5.9.

In the case of “Green-absorbing proteorhodopsin (GPR) (uncultured marine gamma proteobacterium EBAC31A08)”, the pKa (Asp97) is given as ~7.9.
